# Measured values: patent US20020045205A1, “Method for autoactivation of procaspase 8” (priority 1998, published 2002)
# B1: caspase 8 (Homo sapiens) (protein)
# chain 1: SPREQDSESQTLDKVYQMKSKPRGYCLIINNHNFAKAREKVPKLHSIRDRNGTHLDAGALTTTFEELHFEIKPHDDCTVEQIYEILKIYQLMDHSNMDCFICCILSHGDKGIIYGTDGQEAPIYELTSQFTGLKCPSLAGKPKVFFIQACQGDNYQKGIPVETD
# chain 2: LSSPQTRYIPDEADFLLGMATVNNCVSYRNPAEGTWYIQSLCQSLRERCPRGDDILTILTEVNYEVSNKDDKKNMGKQMPQPTFTLRKKLVFPSD
# notes: the 19 kDa peptide (S ^18PREQD . . . IPVETD^181); the 11 kDa chain (L^192SSPQ . . . LVFPSD^286); (His)6 (MRGS(H)6 leader, 12-residue prosegment from pQE30) (N, cleaved yes); made in house; host or cells: E. coli M15 (pREP4), vector pQE30
# B2: Concentrated, but unprocessed, protein: recombinant procaspase 8 polypeptide lacking the DED prodomain, with (His)6 tag, SEQ ID NO:1 (protein, listed as Homo sapiens)
# chain: MRGSHHHHHHGSMTISDSPREQDSESQTLDKVYQMKSKPRGYCLIINNHNFAKAREKVPKLHSIRDRNGTHLDAGALTTTFEELHFEIKPHDDCTVEQIYEILKIYQLMDHSNMDCFICCILSHGDKGIIYGTDGQEAPIYELTSQFTGLKCPSLAGKPKVFFIQACQGDNYQKGIPVETDSEEQPYLEMDLSSPQTRYIPDEADFLLGMATVNNCVSYRNPAEGTWYIQSLCQSLRERCPRGDDILTILTEVNYEVSNKDDKKNMGKQMPQPTFTLRKKLVFPSD
# modifications: (His)6 tag
# What was measured:
# [1] = substrate: CC(=O)N[C@@H](CC(=O)O)C(=O)N[C@@H](CCC(=O)O)C(=O)N[C@H](C(=O)N[C@@H](CC(=O)O)C(=O)Nc1ccc([N+](=O)[O-])cc1)C(C)C; assay: Substrate Km in caspase 8 enzyme assay; format: biochemical, human; conditions: other: 100 mM sodium phosphate/10 mM Tris/100 mM DTT, pH 7.50, 37° C., pH 7.5
# Experimental: Unless otherwise indicated, all specific enzyme activity measurements described herein were made using the Ac-DEVD-pNA substrate. […] Initial rates were determined as follows: 100 μl of 1M DTT, 790 μl 100 mM sodium phosphate/10 mM Tris, pH 7.50, and 10 μl of caspase 8 sample solution (for protein concentrations near 0.5 mg/ml) were added to a quartz semi-micro cuvette.
# [2] = Cleavage of chromogenic and fluorogenic caspase substrates; format: biochemical, human; conditions: substrates Ac-DEVD-pNA, Ac-IETD-pNA, Ac-DEVD-AMC
# Description: Enzyme activity of caspase 8 preparations was monitored using the chromogenic substrates Ac-DEVD-pNA or Ac-IETD-pNA or the fluorogenic substrates Ac-DEVD-AMC or Ac-IETD-AMC. For the chromogenic substrates, kinetic release of para-nitroaniline (pNA) was followed at 405 nm using either a Lambda 6 spectrophotometer or in a microtitre plate format using a Molecular Devices Thermomax plate reader with 405 nm wavelength filter. Kinetic enzyme assays monitoring the release of 7-amino-4-methyl-coumarin from the fluorogenic substrates were conducted using a Molecular Devices fmax plate reader with Ex=355 nm and Em=460 nm.
Molecule,Km [1],activity against caspase substrates [2]
B1,167 µM,
B2,,no measurable activity
